In patent US20050158311A1 one finds activation of the TCF-luciferase reporter, average length of neurites of DRG explants, Ryk siRNA mice against wild type and fold decrease in TCF-driven transcription in Ryk siRNA-containing 293T cells data, which are given here for three molecules.

Holding throughout (assay): cell-based or functional assay
In assay [1] the target is over-expressed Ryk (from a transfected DNA construct expressing Ryk).
Assay [2] deals with endogenous Ryk of mouse (brain cell lysate; DRG explants) (mouse) (UniProt Q01887).
For assay [3], the target named is Dishevelled (overexpressed in 293T cells).
In assay [4] the target is endogenous Ryk of 293T cells (human) (UniProt P34925).
UniProt P34925, sequence (P34925 26-607 limits assumed): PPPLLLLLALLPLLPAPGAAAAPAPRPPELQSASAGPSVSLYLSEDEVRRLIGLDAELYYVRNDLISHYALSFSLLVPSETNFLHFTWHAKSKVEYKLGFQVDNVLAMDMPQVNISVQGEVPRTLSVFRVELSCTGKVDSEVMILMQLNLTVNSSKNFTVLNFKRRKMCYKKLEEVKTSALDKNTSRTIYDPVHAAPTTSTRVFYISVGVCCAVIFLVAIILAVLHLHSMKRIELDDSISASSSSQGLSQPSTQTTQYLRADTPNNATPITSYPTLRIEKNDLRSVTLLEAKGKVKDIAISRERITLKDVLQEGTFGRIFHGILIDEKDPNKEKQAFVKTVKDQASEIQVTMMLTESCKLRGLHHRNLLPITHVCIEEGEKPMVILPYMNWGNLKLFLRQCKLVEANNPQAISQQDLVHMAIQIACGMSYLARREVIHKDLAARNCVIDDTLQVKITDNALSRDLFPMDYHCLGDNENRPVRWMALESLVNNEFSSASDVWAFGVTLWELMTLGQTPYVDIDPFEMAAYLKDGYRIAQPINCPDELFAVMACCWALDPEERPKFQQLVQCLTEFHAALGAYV

UniProt Q01887, sequence (Q01887 35-594 limits assumed): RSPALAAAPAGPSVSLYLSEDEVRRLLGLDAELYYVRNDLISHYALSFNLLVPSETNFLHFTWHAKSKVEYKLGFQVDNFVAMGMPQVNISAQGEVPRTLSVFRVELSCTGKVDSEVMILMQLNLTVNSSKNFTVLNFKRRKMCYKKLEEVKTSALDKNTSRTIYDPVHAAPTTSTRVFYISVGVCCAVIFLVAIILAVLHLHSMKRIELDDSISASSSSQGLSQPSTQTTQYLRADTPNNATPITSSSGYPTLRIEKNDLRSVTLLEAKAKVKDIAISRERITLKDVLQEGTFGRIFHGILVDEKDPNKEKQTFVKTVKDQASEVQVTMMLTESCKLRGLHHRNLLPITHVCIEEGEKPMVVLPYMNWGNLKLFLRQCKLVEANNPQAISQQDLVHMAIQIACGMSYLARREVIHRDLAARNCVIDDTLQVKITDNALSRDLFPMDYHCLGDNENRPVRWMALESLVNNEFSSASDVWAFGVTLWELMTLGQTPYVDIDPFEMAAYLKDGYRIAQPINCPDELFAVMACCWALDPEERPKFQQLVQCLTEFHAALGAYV

Regarding “Wnt3a (Wnt3a conditioned medium) (ligand)”, in assay [1], the activation of the TCF-luciferase reporter is 5 fold. The same molecule registered an average length of neurites of DRG explants, Ryk siRNA mice against wild type in assay [2] of 2 fold. The molecule “over-expressed Ryk (from a transfected DNA construct expressing Ryk) (receptor)” registered an activation of the TCF-luciferase reporter in assay [3] of 25 fold.

B1: Wnt-1 (cotransfected in the TCF-luciferase reporter assay) (ligand, UniProt P04628 28-370, looked up, species assumed)
Proto-oncogene Wnt-1: ANSSGRWWGIVNVASSTNLLTDSKSLQLVLEPSLQLLSRKQRRLIRQNPGILHSVSGGLQSAVRECKWQFRNRRWNCPTAPGPHLFGKIVNRGCRETAFIFAITSAGVTHSVARSCSEGSIESCTCDYRRRGPGGPDWHWGGCSDNIDFGRLFGREFVDSGEKGRDLRFLMNLHNNEAGRTTVFSEMRQECKCHGMSGSCTVRTCWMRLPTLRAVGDVLRDRFDGASRVLYGNRGSNRASRAELLRLEPEDPAHKPPSPHDLVYFEKSPNFCTYSGRLGTAGTAGRACNSSSPALDGCELLCCGRGHRTRTQRVTERCNCTFHWCCHVSCRNCTHTRVLHECL
As to B1, in assay [4], the activation of the TCF-luciferase reporter was found to be 25 fold and the fold decrease in TCF-driven transcription in Ryk siRNA-containing 293T cells was found to be 12 fold.
